Results from publication PMC5007808, “Structure-oriented substrate specificity engineering of aldehyde-deformylating oxygenase towards aldehydes carbon chain length” (Biotechnology for Biofuels, 2016).
Substitutions are numbered along the chain they refer to. Names may count otherwise.

Key:
[1] = substrate: CCCCCCCC=O; assay: GC headspace quantification of alkane product; assay type: biochemical, Synechococcus elongatus; details: NADH/PMS reducing system, catalase, 80 uM ferrous ammonium sulfate, 100 mM HEPES, 100 mM KCl, pH 7.2, 37 °C
[2] = substrate: CCCCCCC=O; assay: GC headspace quantification of alkane product; assay type: biochemical, Synechococcus elongatus; details: NADH/PMS reducing system, catalase, 80 uM ferrous ammonium sulfate, 100 mM HEPES, 100 mM KCl, pH 7.2, 37 °C
[3] = substrate: CCCCCCCCC=O; assay: GC headspace quantification of alkane product; assay type: biochemical, Synechococcus elongatus; details: NADH/PMS reducing system, catalase, 80 uM ferrous ammonium sulfate, 100 mM HEPES, 100 mM KCl, pH 7.2, 37 °C
[4] = substrate: CCCCCC=O; assay: purified protein; details: NADH/PMS reducing system, catalase, 80 uM ferrous ammonium sulfate, 100 mM HEPES, 100 mM KCl, pH 7.2, room temperature

B1: cADO-1593 (Synechococcus elongatus PCC 7942 = FACHB-805) (protein)
chain: MPQLEASLELDFQSESYKDAYSRINAIVIEGEQEAFDNYNRLAEMLPDQRDELHKLAKMEQRHMKGFMACGKNLSVTPDMGFAQKFFERLHENFKAAAAEGKVVTCLLIQSLIIECFAIAAYNIYIPVADAFARKITEGVVRDEYLHRNFGEEWLKANFDASKAELEEANRQNLPLVWLMLNEVADDARELGMERESLVEDFMIAYGEALENIGFTTREIMRMSAYGLAAV
notes: full length, codon-optimized gene in pET-28a, His-tag (nickel column), E. coli BL21(DE3); apo enzyme reconstituted with Fe(II)
Km [1]: 180 ± 30 µM
kcat [1]: 0.0233 ± 0.001 s⁻¹
kcat/Km [1]: 130 ± 5 M⁻¹ s⁻¹
Km [2]: 590 ± 70 µM
kcat [2]: 0.0132 ± 0.0005 s⁻¹
kcat/Km [2]: 21.7 ± 1.67 M⁻¹ s⁻¹
Km [3]: 69 ± 8.7 µM
kcat [3]: 0.0102 ± 0.000333 s⁻¹
kcat/Km [3]: 150 ± 8.33 M⁻¹ s⁻¹
Km [4]: 930 ± 100 µM
kcat [4]: 0.03 s⁻¹
kcat/Km [4]: 31.7 M⁻¹ s⁻¹

B2: cADO-1593 (Synechococcus elongatus PCC 7942 = FACHB-805; A121F) (protein)
chain: B1 chain with A121F
notes: as for B1
Km [1]: 180 ± 36 µM
kcat [1]: 0.0163 ± 0.001 s⁻¹
kcat/Km [1]: 90 ± 5 M⁻¹ s⁻¹
Km [2]: 560 ± 60 µM
kcat [2]: 0.025 ± 0.00167 s⁻¹
kcat/Km [2]: 45 ± 3.33 M⁻¹ s⁻¹
Km [3]: 140 ± 22 µM
kcat [3]: 0.0128 ± 0.000667 s⁻¹
kcat/Km [3]: 90 ± 5 M⁻¹ s⁻¹
Km [4]: 960 ± 50 µM
kcat [4]: 0.115 s⁻¹
kcat/Km [4]: 120 M⁻¹ s⁻¹
